Assay results published in patent publication US20260139028A1 (University of California, published 2026).
Several values for one entry are separate records, joined by “and”; a condition that tells them apart may be missing. Equal entries are not always repeated.

Assays:
[1] = biological target: integrins on CHO cells (α5β1+ and αvβ3 low), PSGL-1 negative; assay: cell-based or functional assay
[2] = biological target: T1, soluble integrin αvβ3 (UniProt P06756 31-992; P05106 27-718); assay: ELISA-type, coated proteins, soluble integrin
T1 construct: Soluble integrin used at 1 µg/ml; also called soluble αvβ3
T1 sequence (P06756 31-992, chain 1 of 2): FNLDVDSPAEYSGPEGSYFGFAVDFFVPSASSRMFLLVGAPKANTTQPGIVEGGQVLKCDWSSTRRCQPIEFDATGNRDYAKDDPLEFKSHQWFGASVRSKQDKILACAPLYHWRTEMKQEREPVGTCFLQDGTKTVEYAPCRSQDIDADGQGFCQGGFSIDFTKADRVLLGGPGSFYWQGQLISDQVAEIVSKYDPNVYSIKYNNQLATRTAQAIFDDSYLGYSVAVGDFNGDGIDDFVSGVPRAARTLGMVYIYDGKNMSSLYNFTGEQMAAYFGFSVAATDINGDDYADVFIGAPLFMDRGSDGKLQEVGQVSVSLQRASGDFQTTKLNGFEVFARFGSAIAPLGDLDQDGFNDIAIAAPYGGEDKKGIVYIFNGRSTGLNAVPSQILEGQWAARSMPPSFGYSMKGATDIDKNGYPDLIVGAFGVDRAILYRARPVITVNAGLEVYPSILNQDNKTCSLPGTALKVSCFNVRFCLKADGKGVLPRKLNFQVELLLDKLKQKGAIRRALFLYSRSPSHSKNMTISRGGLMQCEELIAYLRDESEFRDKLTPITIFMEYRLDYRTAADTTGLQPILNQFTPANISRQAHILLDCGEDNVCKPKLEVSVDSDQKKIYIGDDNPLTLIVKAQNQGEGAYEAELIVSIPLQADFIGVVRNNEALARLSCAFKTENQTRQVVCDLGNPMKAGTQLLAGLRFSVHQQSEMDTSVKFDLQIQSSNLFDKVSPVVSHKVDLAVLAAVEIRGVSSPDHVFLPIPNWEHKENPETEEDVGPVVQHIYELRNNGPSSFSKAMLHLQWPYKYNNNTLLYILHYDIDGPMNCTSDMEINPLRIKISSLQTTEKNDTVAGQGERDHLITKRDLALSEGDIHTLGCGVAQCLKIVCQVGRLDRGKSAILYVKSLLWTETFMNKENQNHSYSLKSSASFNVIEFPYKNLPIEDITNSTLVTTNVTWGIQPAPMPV
T1 sequence (P05106 27-718, chain 2 of 2): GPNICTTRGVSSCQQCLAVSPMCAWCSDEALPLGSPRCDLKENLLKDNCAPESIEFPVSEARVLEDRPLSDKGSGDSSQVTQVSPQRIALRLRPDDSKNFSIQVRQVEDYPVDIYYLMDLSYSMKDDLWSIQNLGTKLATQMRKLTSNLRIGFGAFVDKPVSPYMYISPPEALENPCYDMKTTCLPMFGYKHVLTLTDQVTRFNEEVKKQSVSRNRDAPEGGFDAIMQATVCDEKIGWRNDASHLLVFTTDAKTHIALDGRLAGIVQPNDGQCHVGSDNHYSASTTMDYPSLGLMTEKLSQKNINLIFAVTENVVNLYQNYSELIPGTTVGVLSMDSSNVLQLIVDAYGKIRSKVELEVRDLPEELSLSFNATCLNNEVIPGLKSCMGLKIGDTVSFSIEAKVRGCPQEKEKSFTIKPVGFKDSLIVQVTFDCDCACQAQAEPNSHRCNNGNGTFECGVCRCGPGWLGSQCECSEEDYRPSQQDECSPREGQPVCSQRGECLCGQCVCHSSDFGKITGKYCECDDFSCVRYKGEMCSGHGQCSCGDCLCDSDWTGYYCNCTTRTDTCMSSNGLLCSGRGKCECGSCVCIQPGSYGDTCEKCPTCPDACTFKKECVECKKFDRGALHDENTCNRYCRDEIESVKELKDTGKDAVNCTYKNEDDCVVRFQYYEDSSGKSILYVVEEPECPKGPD

[3] = biological target: T2, soluble recombinant integrin αIIbβ3 (UniProt P08514 32-993; P05106 27-718); assay: ELISA-type, coated proteins, soluble integrin
T2 construct: Bought (AgroBio), used at 1 µg/ml; also called soluble αIIbβ3

| Binder | adhesion of CHO cells to immobilized lectin domain [1] | fold binding against the combined lectin and EGF-like domains [2] [fold] | fold binding against the combined lectin and EGF-like domains [3] [fold] |
| --- | --- | --- | --- |
| C-type lectin domain of CD62P (P-selectin), wild type, residues 1-117 (ligand, not shown: small tags and cut ends, also called the lectin domain; CD62P lectin domain) WTYHYSTKAYSWNISRKYCQNRYTDLVAIQNKNEIDYLNKVLPYYSSYYWIGIRKNNKTWTWVGTKKALTNEAENWADNEPNNKRNNEDCVEIYIKSPSAPGKWNDEHCLKKKHALC | 70% and > 90% | ~2 | ~2 |
| CD62P lectin domain mutant R16E/K17E, P16109 42-158 (ligand, not shown: small tags and cut ends) WTYHYSTKAYSWNISEEYCQNRYTDLVAIQNKNEIDYLNKVLPYYSSYYWIGIRKNNKTWTWVGTKKALTNEAENWADNEPNNKRNNEDCVEIYIKSPSAPGKWNDEHCLKKKHALC | 60% | – | – |
